In patent US7122363 one finds cAMP hydrolytic activity (extracts of transfected COS-7 cells, 2 uM cAMP), CaM-stimulated cAMP phosphodiesterase activity (homogenates of transfected COS-7 cells) and CaM-stimulated cGMP phosphodiesterase activity (homogenates of transfected COS-7 cells) data, which are given here for one substance.

In assay [1] the target is 59 kDa bovine lung CaM-PDE (expression product of p59KCAMPDE-2 cDNA) (bovine) (UniProt P14100). Put plainly: cell-based or functional assay.
Assay [2] deals with 63 kDa bovine brain CaM-PDE (expression product of p12.3a cDNA) (bovine) (UniProt Q01061). As to the kind of experiment: cell-based or functional assay.
Chain of 63 kDa bovine brain CaM-PDE (expression product of p12.3a cDNA) (bovine) (Q01061 whole entry): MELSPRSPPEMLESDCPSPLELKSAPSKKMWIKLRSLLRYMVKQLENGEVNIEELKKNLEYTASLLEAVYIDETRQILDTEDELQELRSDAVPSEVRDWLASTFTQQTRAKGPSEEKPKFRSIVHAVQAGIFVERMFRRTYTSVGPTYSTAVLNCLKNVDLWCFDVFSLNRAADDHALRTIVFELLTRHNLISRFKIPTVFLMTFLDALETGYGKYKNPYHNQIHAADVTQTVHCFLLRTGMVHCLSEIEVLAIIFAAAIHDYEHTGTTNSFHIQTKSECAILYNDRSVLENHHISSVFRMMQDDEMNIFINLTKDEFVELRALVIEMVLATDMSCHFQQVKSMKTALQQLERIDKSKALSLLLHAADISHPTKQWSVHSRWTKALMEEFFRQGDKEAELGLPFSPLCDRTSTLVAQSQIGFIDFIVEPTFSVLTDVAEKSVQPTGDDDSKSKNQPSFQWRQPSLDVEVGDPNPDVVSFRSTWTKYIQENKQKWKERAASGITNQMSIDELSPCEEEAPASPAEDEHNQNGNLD

Chain of 59 kDa bovine lung CaM-PDE (expression product of p59KCAMPDE-2 cDNA) (bovine) (P14100 other isoform, or with tags, fused parts or gaps limits assumed): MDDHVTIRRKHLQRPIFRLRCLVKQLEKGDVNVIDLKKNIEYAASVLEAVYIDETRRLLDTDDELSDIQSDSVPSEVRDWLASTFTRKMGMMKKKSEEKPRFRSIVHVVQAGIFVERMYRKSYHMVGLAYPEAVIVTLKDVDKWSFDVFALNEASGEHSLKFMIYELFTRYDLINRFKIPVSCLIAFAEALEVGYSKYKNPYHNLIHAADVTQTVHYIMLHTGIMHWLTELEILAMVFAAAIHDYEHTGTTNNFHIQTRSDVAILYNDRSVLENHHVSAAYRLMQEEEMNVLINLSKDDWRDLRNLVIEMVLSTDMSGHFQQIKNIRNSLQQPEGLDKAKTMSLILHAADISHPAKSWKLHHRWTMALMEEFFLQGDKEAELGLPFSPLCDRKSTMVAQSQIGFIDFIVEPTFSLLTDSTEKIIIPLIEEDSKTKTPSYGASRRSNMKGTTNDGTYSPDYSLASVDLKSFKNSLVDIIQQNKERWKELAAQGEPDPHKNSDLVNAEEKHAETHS

With calmodulin, in assay [1], the cAMP hydrolytic activity (extracts of transfected COS-7 cells, 2 uM cAMP) was 4 to 5 fold. In assay [2], this substance displayed a CaM-stimulated cAMP phosphodiesterase activity (homogenates of transfected COS-7 cells) of 15 fold and a CaM-stimulated cGMP phosphodiesterase activity (homogenates of transfected COS-7 cells) of 12 fold.
